From patent US6509383 come the findings set out here.

The target of data set [1] is his-tagged Drosophila PCNA (UniProt P17917).
Data set [2] addresses purified calf thymus DNA polymerase δ (calf (bovine)) (UniProt P28339). Put plainly: cell-based or functional assay.

Sequence of his-tagged Drosophila PCNA (P17917 whole entry): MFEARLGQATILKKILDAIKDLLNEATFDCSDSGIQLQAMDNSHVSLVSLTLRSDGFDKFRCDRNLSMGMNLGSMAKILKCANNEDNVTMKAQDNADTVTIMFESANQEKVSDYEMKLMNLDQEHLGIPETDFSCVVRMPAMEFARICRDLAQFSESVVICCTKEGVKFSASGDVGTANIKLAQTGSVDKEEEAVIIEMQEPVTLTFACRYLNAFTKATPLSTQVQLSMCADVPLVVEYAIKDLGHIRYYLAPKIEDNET
Sequence of purified calf thymus DNA polymerase δ (calf (bovine)) (P28339 whole entry, stated change not applied): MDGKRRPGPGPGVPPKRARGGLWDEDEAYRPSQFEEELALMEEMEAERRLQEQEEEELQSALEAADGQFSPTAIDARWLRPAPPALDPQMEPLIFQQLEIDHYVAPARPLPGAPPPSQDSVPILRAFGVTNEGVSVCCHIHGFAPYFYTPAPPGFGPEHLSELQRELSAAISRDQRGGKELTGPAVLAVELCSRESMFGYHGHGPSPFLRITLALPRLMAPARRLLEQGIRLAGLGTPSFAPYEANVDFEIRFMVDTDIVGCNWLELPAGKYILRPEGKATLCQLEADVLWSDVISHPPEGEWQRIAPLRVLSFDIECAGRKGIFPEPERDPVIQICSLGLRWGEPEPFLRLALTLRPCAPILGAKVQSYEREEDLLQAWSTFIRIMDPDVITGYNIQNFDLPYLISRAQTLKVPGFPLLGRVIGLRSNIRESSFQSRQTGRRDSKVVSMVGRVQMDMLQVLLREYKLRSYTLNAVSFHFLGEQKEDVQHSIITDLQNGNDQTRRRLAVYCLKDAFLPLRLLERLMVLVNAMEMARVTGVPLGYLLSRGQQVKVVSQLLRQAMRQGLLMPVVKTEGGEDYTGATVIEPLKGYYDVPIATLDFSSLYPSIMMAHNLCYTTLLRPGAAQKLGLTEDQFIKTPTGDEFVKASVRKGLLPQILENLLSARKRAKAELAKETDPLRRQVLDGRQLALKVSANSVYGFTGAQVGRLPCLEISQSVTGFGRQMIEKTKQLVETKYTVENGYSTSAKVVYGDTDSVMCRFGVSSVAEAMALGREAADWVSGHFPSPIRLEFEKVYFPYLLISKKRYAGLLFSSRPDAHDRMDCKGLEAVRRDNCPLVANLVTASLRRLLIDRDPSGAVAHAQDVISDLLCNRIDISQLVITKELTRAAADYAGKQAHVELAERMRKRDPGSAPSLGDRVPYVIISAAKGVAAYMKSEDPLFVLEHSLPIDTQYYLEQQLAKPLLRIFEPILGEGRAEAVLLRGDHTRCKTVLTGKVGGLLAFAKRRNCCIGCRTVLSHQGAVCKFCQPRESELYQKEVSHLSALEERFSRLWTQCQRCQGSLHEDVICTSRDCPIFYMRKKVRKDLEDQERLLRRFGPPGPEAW

With purified calf thymus DNA polymerase δ, the “in situ DNA polymerase assay on Ni2+-IDA-paper ([alpha-32P]dGTP incorporation, PhosphorImager)” value in data set [1] is reported as “almost no reactivity was observed corresponding to the spot of Drosophila PCNA”.

As to “NH2-terminally his-tagged E^85>K mutant human PCNA (from UniProt P12004 1-261)”, the solution assay of pol δ: extended DNA synthesis beyond model abasic template lesions, compared with wild-type PCNA (phosphorimager) in data set [2] was 40%.
